According to patent publication US20200231538, “NOVEL COMPOUNDS AND THERAPEUTICS USES THEREOF” (Centauri Therapeutics Limited (GB/GB), published 2020):

Key:
EGFR [1] = target: T1, EGFR (Homo sapiens, UniProt P00533 P00533:25-1210); test: flow; 10 nM (9.8 at 1 uM); anti-alpha-Gal IgG recruitment to A431 cells; PBS, 5 mM MgCl2, RT; conditions: tags: A431 cells (ATCC CRL-1555), endogenous overexpression
Experimental: (§1) A431 cells (ATCC CRL-1555) were harvested and resuspended at 5×10⁶ cells/mL in phosphate buffered saline (PBS) (Sigma D8662)+0.1% BSA (Bovine Serum Albumin—Sigma A2153)+0.1 mg/mL Yeast t-RNA (Invitrogen 15401-011)+5 mM MgCl₂ (Sigma M1028) and incubated on ice for 30 minutes to block. 5×10⁵ cells were then incubated with compound at various concentrations as described below or buffer alone at room temperature, shaking at 450 rpm for 1 hour. The cells were washed with 3×200 μL PBS+0.1% BSA, prior to adding 50 μL of Anti-alpha galactosyl IgG antibody (custom purification from human IVIG, Rockland Immunochemicals, Inc.) at 35 μg/mL in PBS+0.1% BSA and incubating at 4° C. for 1 hour. The cells were further washed with 3×200 μL PBS+0.1% BSA before being treated with 100 μL 1:40 dilution of Anti-Human IgG-PE (phycoerythrin) (Biolegend 409303) at 4° C. for 1 hour. After a final wash of 3×200 μL PBS+0.1% BSA the cells were resuspended in 200 μL PBS+0.1% BSA and evaluated on a flow cytometer (FC500 Beckman Coulter). Data from all samples were analysed in the Kaluza software package (Beckman Coulter).
(§2) The fold shift over background was calculated by dividing the Mean Fluorescence Intensity (MFI) obtained in the presence of 10 nM or 1 μM alphamer by the Mean Fluorescence Intensity (MFI) obtained in the absence of alphamer. […]

EGFR [2] = target: T1, EGFR; test: flow; 10 nM (18.4 at 1 uM); anti-alpha-Gal IgG recruitment to A431 cells; PBS, 5 mM MgCl2, RT; conditions: tags: A431 cells (ATCC CRL-1555), endogenous overexpression
Experimental: as §1, §2

EGFR [3] = target: T1, EGFR; test: flow; 10 nM (16.3 at 1 uM); anti-alpha-Gal IgG recruitment to A431 cells; PBS, 5 mM MgCl2, RT; conditions: tags: A431 cells (ATCC CRL-1555), endogenous overexpression
Experimental: as §1, §2

EGFR [4] = target: T1, EGFR; test: flow; 10 nM (7.5 at 1 uM); anti-alpha-Gal IgG recruitment to A431 cells; PBS, 5 mM MgCl2, RT; conditions: tags: A431 cells (ATCC CRL-1555), endogenous overexpression
Experimental: as §1, §2

PSMA [5] = target: T2, PSMA (Homo sapiens, UniProt Q04609 Q04609:1-750); test: flow; 10 nM (11.1 at 1 uM); anti-alpha-Gal IgG recruitment to LNCaP cells; PBS, 5 mM MgCl2, RT; conditions: tags: LNCaP cells (ATCC CRL-1740), endogenous overexpression
T2 sequence (Q04609 whole entry, one chain of several): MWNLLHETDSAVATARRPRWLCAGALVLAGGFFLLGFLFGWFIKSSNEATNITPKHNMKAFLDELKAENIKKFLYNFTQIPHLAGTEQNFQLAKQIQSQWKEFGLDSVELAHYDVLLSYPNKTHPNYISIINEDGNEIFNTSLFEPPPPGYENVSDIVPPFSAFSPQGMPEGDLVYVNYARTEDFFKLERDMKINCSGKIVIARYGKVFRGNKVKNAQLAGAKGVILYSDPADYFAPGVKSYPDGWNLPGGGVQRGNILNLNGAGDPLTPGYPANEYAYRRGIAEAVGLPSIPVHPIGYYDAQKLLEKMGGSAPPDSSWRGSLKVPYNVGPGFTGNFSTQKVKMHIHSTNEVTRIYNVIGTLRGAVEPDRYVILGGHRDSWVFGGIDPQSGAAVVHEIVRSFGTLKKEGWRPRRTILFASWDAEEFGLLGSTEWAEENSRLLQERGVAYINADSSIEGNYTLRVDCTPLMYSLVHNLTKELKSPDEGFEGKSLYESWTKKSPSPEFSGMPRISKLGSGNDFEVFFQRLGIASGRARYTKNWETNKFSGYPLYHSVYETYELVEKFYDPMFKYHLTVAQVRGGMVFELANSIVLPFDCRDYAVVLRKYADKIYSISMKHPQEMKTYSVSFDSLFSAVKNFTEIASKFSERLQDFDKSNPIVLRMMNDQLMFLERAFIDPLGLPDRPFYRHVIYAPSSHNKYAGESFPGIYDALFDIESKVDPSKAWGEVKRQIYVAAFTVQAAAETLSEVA
Experimental: as §1, with “LNCaP” for “A431”, “CRL-1740)” for “CRL-1555)”, “The cells were washed with 3×200 μL PBS+0.1% BSA, prior to adding 50 μL of Anti-alpha galactosyl IgG antibody (custom purification from human IVIG, Rockland Immunochemicals, Inc.) at 35 μg/mL in PBS+0.1% BSA and incubating at 4° C. for 1 hour.” left out
as §2, with “alphamer. The fold shift over background is reported as a geometric mean with standard error in brackets. The number of independent experiments is also reported.” for “alphamer.”

PSMA [6] = target: T2, PSMA; test: flow; 10 nM (8.5 at 1 uM); anti-alpha-Gal IgG recruitment to LNCaP cells; PBS, 5 mM MgCl2, RT; conditions: tags: LNCaP cells (ATCC CRL-1740), endogenous overexpression
Experimental: as §1, with “LNCaP” for “A431”, “CRL-1740)” for “CRL-1555)”, “The cells were washed with 3×200 μL PBS+0.1% BSA, prior to adding 50 μL of Anti-alpha galactosyl IgG antibody (custom purification from human IVIG, Rockland Immunochemicals, Inc.) at 35 μg/mL in PBS+0.1% BSA and incubating at 4° C. for 1 hour.” left out
as §2, with “alphamer. The fold shift over background is reported as a geometric mean with standard error in brackets. The number of independent experiments is also reported.” for “alphamer.”

PSMA [7] = target: T2, PSMA; test: flow; 10 nM (8.6 at 1 uM); anti-alpha-Gal IgG recruitment to LNCaP cells; PBS, 5 mM MgCl2, RT; conditions: tags: LNCaP cells (ATCC CRL-1740), endogenous overexpression
Experimental: as §1, with “LNCaP” for “A431”, “CRL-1740)” for “CRL-1555)”, “The cells were washed with 3×200 μL PBS+0.1% BSA, prior to adding 50 μL of Anti-alpha galactosyl IgG antibody (custom purification from human IVIG, Rockland Immunochemicals, Inc.) at 35 μg/mL in PBS+0.1% BSA and incubating at 4° C. for 1 hour.” left out
as §2, with “alphamer. The fold shift over background is reported as a geometric mean with standard error in brackets. The number of independent experiments is also reported.” for “alphamer.”

B1: Example 1 (EGFR aptamer 1-alpha-Gal double cluster 1) (ssRNA)
RNA: GGGAUUUAAUCGCCGUAGAAAAGCAUGUCAAAGCCGGAACCC
modifications: 2'-F pyrimidines, 2'-OMe at most purines (mG, most mA), remaining A 2'-OH; 5' H2N-(CH2)6 linked to alpha-Gal cluster; 3' idT
binding signal (EGFR [1]): 7.7 fold MFI over background

B2: Example 2 (EGFR aptamer 1-alpha-Gal double cluster 2) (ssRNA)
RNA: B1 RNA
modifications: 2'-F pyrimidines, 2'-OMe at most purines (mG, most mA), remaining A 2'-OH; 5' H2N-(CH2)6 linked to alpha-Gal cluster; 3' idT
binding signal (EGFR [2]): 10.7 fold MFI over background

B3: Example 3 (EGFR aptamer 1-alpha-Gal double cluster 3) (ssRNA)
RNA: B1 RNA
modifications: 2'-F pyrimidines, 2'-OMe at most purines (mG, most mA), remaining A 2'-OH; 5' H2N-(CH2)6 linked to alpha-Gal cluster; 3' idT
binding signal (EGFR [3]): 9.7 fold MFI over background

B4: Example 4 (EGFR aptamer 1-alpha-Gal double cluster 4) (ssRNA)
RNA: B1 RNA
modifications: 2'-F pyrimidines, 2'-OMe at most purines (mG, most mA), remaining A 2'-OH; 5' H2N-(CH2)6 linked to alpha-Gal cluster; 3' idT
binding signal (EGFR [4]): 3.4 fold MFI over background

B5: Example 5 (PSMA aptamer A9g-alpha-Gal double cluster 1) (ssRNA)
RNA: GGGACCGAAAAAGACCUGACUUCUAUACUAAGUCUACGUUCCC
modifications: 2'-F pyrimidines, 2'-OH purines; 5' H2N-(CH2)6 linked to alpha-Gal cluster; 3' idT
binding signal (PSMA [5]): 7.8 fold MFI over background

B6: Example 6 (PSMA aptamer A9g-alpha-Gal double cluster 5) (ssRNA)
RNA: B5 RNA
modifications: 2'-F pyrimidines, 2'-OH purines; 5' H2N-(CH2)6 linked to alpha-Gal cluster; 3' idT
binding signal (PSMA [6]): 5.33 fold MFI over background

B7: Example 7 (PSMA aptamer A9g-alpha-Gal double cluster 2) (ssRNA)
RNA: B5 RNA
modifications: 2'-F pyrimidines, 2'-OH purines; 5' H2N-(CH2)6 linked to alpha-Gal cluster; 3' idT
binding signal (PSMA [7]): 3.82 fold MFI over background
